Reference: patent publication US10450573B2, “Compositions and methods for regulation of gene expression with, and detection of, folinic acid and folates” (The Board of Trustees of the Leland Stanford Junior …, priority 2014, dated 2019)

Experiments:
GFP expression = test: miRNA switch silencing activity on GFP in mammalian cells; type: cell-based; details: folinic acid
Description: Ligand-responsive, microRNA (miRNA) switches have been developed that modulate Drosha processing. These switches integrate an aptamer into the basal segments of a miRNA. Internal loop size contained within the basal segments affects Drosha processing and therefore the levels of miRNA-mediated gene silencing. By integrating an aptamer within the basal segments, unbound aptamer can remain relatively unstructured, while ligand binding can sequester nucleotides involved in binding and inhibit Drosha processing.
Aptamer integration into this switch platform requires two integration stems; therefore, aptamer FA8-3 was chosen. Separate studies on using this aptamer in a transmitter-based switch observe that an internal loop within the aptamer could be expanded while retaining ligand binding ability. This loop was expanded to the previously identified optimal loop size and integrated into the miRNA switch that targets GFP. A single copy of the miRNA switch enables up to 2.1-fold change in GFP expression (FIG. 26b); including two copies yields up to 2.6-fold change (FIG. 26c). Additional copies of the switch would be expected to further increase the achievable activation ratio, as would specific use of (6R)-folinic acid.

[1] = Surface plasmon resonance aptamer binding assay, (6R)-folinic acid; details: for Selectivity: between (6R)- and (6S)-folinic acid diastereomers
Method: (§1) Surface plasmon resonance characterization of aptamer binding properties. Nucleic acid aptamer preparation. RNA aptamers were prepared by PCR amplification of DNA template sequences (Table 4, Integrated DNA Technologies, Coralville, Iowa) using forward and reverse primers Biacore-fwd and Biacore-rev, respectively, followed by transcription of the PCR product using the MEGAshortscript T7 transcription kit (Life Technologies) and purification of the transcription product using the RNA Clean & Concentrator kit (Zymo Research, Irvine, Calif.), according to the manufacturers' instructions. Aptamers were resuspended in selection buffer, denatured at 65° C. for 5 min, and cooled to room temperature directly before use.
(§2) Sensor chip surface generation. Experiments were performed on a Biacore X100 instrument (GE Healthcare) at 25° C. A CM5 sensor chip (GE Healthcare) was equilibrated with HBS-N buffer. The DNA linker strand (5′-AmMC6-[…]) (Integrated DNA Technologies) (SEQ ID NO:133), with an amino modified 6-carbon linker on the 5′ end, was immobilized to the chip surface. The carboxymethylated dextran surface of the CM5 chip was activated for 7 min at a flow rate of 10 μL/min using a 1:1 volume ratio of 0.4 M 1-ethyl-3-(3-dimethylaminopropyl) carbodiimide (GE Healthcare) and 0.1 M N-hydroxysuccinimide (GE Healthcare). A molar ratio of 1:30 of DNA strand to hexadecyltrimethylammonium bromide (Sigma-Aldrich, St. Louis, Mo.) was diluted in 10 mM HEPES buffer (Sigma-Aldrich) to a final concentration of 20 μM and 0.6 mM, respectively, and injected over the activated surface for 10 min at a flow rate of 5 μL/min. Excess activated groups were blocked by an injection of 1 M ethanolamine (GE Healthcare), pH 8.5, for 7 min at a flow rate of 10 μL/min. The immobilization reaction was performed sequentially on both flow cells (FC1, FC2) and yielded approximately 4,000 RU of the DNA strand.
(§3) Aptamer binding assay. The Biacore X100 instrument was primed three times with running buffer prior to all binding assays. For each assay, three startup cycles were performed to stabilize the sensorgram baseline. For each startup cycle, the aptamer (˜40-70 ng/μL, ˜3 μM) was captured onto the sample flow cell (FC2) for 40 s at a flow rate of 5 μL/min. 25 mM NaOH (GE Healthcare) was injected for 30 s at a flow rate of 30 μL/min over both flow cells to regenerate the sensor surface. A dilution series of (6R)- or (6S)-folinic acid (Schircks Laboratories, Jona, Switzerland) was prepared in selection buffer and filtered through a 0.2 μm membrane (Pall Corporation, Port Washington, N.Y.). For each concentration sample, the aptamer was captured onto the sample flow cell (FC2) for 40 s at a flow rate of 5 μL/min, the folinic acid solution was injected over both flow cells at a flow rate of 30 μL/min to monitor target association, and selection buffer was injected over both flow cells at a flow rate of 30 μL/min to monitor target dissociation. Association and dissociation phase lengths used were chosen based on time needed to reach equilibrium. Aptamer and folinic acid were removed from the sensor surface by injecting 25 mM NaOH for 30 s at a flow rate of 30 μL/min over both flow cells.
(§4) Data processing and analysis were performed using Biacore X100 Evaluation Software version 2.0 (GE Healthcare). A double-referencing method was performed to process all datasets. Data from the sample flow cell (FC2) were referenced first by subtracting data from the reference flow cell (FC1) to correct for bulk refractive index changes, nonspecific binding, injection noise, matrix effects, and baseline drift. Reference-subtracted data (FC2−FC1) were double-referenced with a blank injection of running buffer to account for any systematic drift over the course of the injection. Double-referenced data were fit to a 1:1 binding model for kinetic analysis or steady-state affinity model for thermodynamic analysis. […]

[2] = Surface plasmon resonance aptamer binding assay, (6S)-folinic acid; details: SPR, 25° C., selection buffer pH 7.4, 5 mM MgCl2
Method: as §1, §2, §3, §4

[3] = SPR screen of truncated or mutated aptamers for folinic acid binding (qualitative)
Method: Full length sequences were amplified off of sequencing PCR products using primers N70-fwd-short and Biacore-N70-rev to append a poly(A) tail. Truncated or mutated sequences were synthesized by Integrated DNA Technologies or the Protein and Nucleic Acid facility (Stanford, Calif.).
as §1
Sensor chip surface generation. Experiments were performed on a Biacore X100 instrument (GE Healthcare) at 25° C. A CM5 sensor chip (GE Healthcare) was equilibrated with HBS-N buffer. The DNA linker strand (5′-AmMC6-[…]) (Integrated DNA Technologies) (SEQ ID NO:133), with an amino modified 6-carbon linker on the 5′ end, was immobilized to the chip surface. […]

[4] = SPR equilibrium binding to folate derivative (6R)-tetrahydrobiopterin; details: N.D. = non-detectable levels of binding, read-out: KD, (6R)-Tetrahydrobiopterin (THB)
[5] = SPR binding to (6R,S)-5-methyl-5,6,7,8-tetrahydrofolic acid; details: ligand is mixture of (6R) and (6S) diastereomers, read-out: KD, (6R,S)-5-methyl-THF
[6] = SPR binding to (6R,S)-5-formyl-5,6,7,8-tetrahydropteroic acid; details: ligand is mixture of (6R) and (6S) diastereomers
[7] = SPR, 25° C., selection buffer pH 7.4, 5 mM MgCl2
[8] = SPR, 1:1 binding model, 25° C., selection buffer pH 7.4, 5 mM MgCl2

| Molecule | change in GFP expression (GFP expression; single copy of the miRNA switch) | change in GFP expression (GFP expression; two copies of the miRNA switch) | Kd [1, 7] | Selectivity [1] | ka, (6S)-Folinic Acid ([2]; 1:1 binding model) | kd, (6S)-Folinic Acid ([2]; 1:1 binding model) | Kd [2] | folinic acid binding (qualitative) [3] | ka, (6R)-Folinic Acid [1, 8] | kd, (6R)-Folinic Acid [1, 8] | Kd [4] | Kd [5] | ka, (6R,S)-5-formyl-THPteroic Acid [6] | kd, (6R,S)-5-formyl-THPteroic Acid [6] | Kd ([6]; read-out: KD, (6R,S)-5-formyl-THPteroic Acid) |
| --- | --- | --- | --- | --- | --- | --- | --- | --- | --- | --- | --- | --- | --- | --- | --- |
| miRNA switch: folinic acid-responsive miRNA switch with aptamer FA8-3 that targets GFP, SEQ ID NO: 57 (nucleic acid, Synthetic nucleic acid) AATAACCGGTGCGATCGCGAACGGGTCCTCACTACCCCTCGAAATCACGAGGGAGACGAGATAAGAGCGACGGCGGAGCGAGCACAAGCTGGAGTACAACTATAGTGAAGCCACAGATGTATAGTTGTACTCCAGCTTGTGCCCGCCTTGCCAACCATAACGTCTGGTCACGACCGTAGTAAGGGCCCGTTTTTAATTAAATCGATTATT | up to 2.1 fold | up to 2.6 fold | – | – | – | – | – | – | – | – | – | – | – | – | – |
| tFA8-14: truncated (6S)-FA specific RNA aptamer, SEQ ID NO: 25 (nucleic acid, unmodified RNA) CCGCGCAAGUGCAUUAACGGUGACACCGAAAGCUGGAAAGCCUGACAUCGAACGCAAAAGGCUGCGUGG | – | – | 10200 µM | 71,100 | 89200 M⁻¹ s⁻¹ | 0.0128 s⁻¹ | 0.144 µM | maintains binding | – | – | – | – | – | – | – |
| tFA8-3: truncated (6R)-FA specific RNA aptamer, SEQ ID NO: 19 (nucleic acid, unmodified RNA) UUUGCCAACGUCUGGUCACGACCGUAGUACACUACCCCUCGAAAUCACGAGGGAGACGAGAUAGGCGGA | – | – | 0.0473 µM | 606 | – | – | 28.6 µM | – | 459000 M⁻¹ s⁻¹ | 0.0217 s⁻¹ | 1.6 µM | 0.158 µM | 305000 M⁻¹ s⁻¹ | 0.0292 s⁻¹ | 0.0957 µM |
